{"source": "patent US11319374B2", "about": "“Inhibitors of prototypic galectin dimerization and uses thereof” (INSTITUT NATIONAL DE LA RECHERCHE SCIENTIFIQUE, priority 2015, dated 2022)", "target": "T1, hGal-7 homodimer (Homo sapiens, UniProt P47929)", "T1 construct": "made in house; host or cells: E. coli BL21 (DE3)", "T1 sequence (P47929 2-136 limits assumed)": "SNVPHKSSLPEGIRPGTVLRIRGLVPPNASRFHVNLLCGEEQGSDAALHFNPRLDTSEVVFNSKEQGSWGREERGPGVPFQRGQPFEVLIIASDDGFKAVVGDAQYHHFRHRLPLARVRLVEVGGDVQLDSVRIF", "test": "hGal-7 homodimer disruption, low-SDS native gel electrophoresis / Western blotting", "assay_type": "biochemical", "conditions": "recombinant hGal-7 0.5 μM", "procedure": "Production of recombinant hGal-7 and hGal-1. Human Gal-7 cDNA was cloned into pET-22b(+) using Ndel and HindIII restriction enzymes. Human pET-Gal-1 vector was generously donated by Dr. S. Sato (McGill University, QC, Canada). The proteins were produced in E. coli BL21 (DE3) cells at 37° C. Isopropyl p-D-1-thiogalactopyranoside (IPTG) (1 mM) was added to the bacterial culture at OD600nm=0.6-0.7 and then incubated for 4 h at 37° C. to allow protein production. Bacterial pellets were resuspended in lysis buffer (0.7 mg/mL lysozyme, 10 mM Tris pH 8, 100 mM NaCl, 1 mM EDTA, 1 mM DTT and a protease inhibitor cocktail) and then incubated for 1 h at 37° C. prior to centrifugation for 30 min at 15,000×g (4° C.). The supernatant was then filtered with 500 mL bottle top filter ([…]) (Corning®, New York, N.Y., USA) and then ran through a lactose-agarose column (Sigma®, St. Louis, Mo., USA). The protein was eluted in 1 mL fractions with 150 mM lactose solution. Purified fractions were analyzed by SDS-PAGE. The hGal-7 was then concentrated and purified using Centrifugal filter units (Amicon® Ultra-15, 10K) (EMD®, Etobicoke, ON) in 20 mM potassium phosphate at pH 7.1. All subsequent experiments with the recombinant proteins were performed in the same buffer solution unless mentioned otherwise. Brilliant Coomassie blue was purchased from BioRad® (Bio-Rad Laboratories®, Mississauga, ON, Canada). The recombinant human Bcl-2 protein fragment was purchased from Abcam® (Abcam®, Cambridge, UK, Cat #ab73696).\nWestern blotting. For the apoptosis tests, whole-cell extracts were homogenized and resuspended in RIPA buffer (Thermo Fisher Scientific®, Rockford, Ill., USA) containing protease inhibitors (Roche®, Laval, QC, Canada). Equal amounts of whole-cell extracts (25 μg) were separated on SDS-PAGE and transferred onto nitrocellulose membranes (Bio-Rad Laboratories®). The membranes were first blocked with 5% milk [w/v] in TBS/0.5% Tween® 20 [v/v] for 1 h at room temperature and subsequently blotted overnight in a solution of TBS containing 3% BSA [w/v] and 0.5% Tween 20 [v/v]. The following antibodies were used: a rabbit anti-Poly-(ADP-ribose) polymerase (PARP)-1 (p25) polyclonal antibody (1:5000; Epitomics®, Burlingame, Calif., USA) and a mouse anti-β-actin (1:10000; Sigma-Aldrich®, St-Louis, Mo., USA). Secondary antibodies consisted of horseradish peroxidase-conjugated donkey anti-rabbit (GE Healthcare®, Buckinghamshire, England) and sheep anti-mouse (GE Healthcare®) IgG. Detection was performed using the enhanced chemiluminescence method (GE Healthcare®). For the recombinant protein tests, each peptide was dissolved and maintained in 20 mM potassium phosphate at pH 7.1. The recombinant proteins and peptide dilutions were pre-incubated for 1 h at 4° C. prior to gel migration. The native polyacrylamide gel was made without SDS to allow molecular weight differentiation between the dimer and monomer. The following antibodies were used: a goat anti-Gal-7 antibody (1:10000; R&D Systems®, Minneapolis, Minn., USA), a mouse anti-Gal-1 antibody (1:10000; Proteintech®, Chicago, Ill., USA) and a rabbit anti-Bcl-2 antibody (1:1000; Abeam®, Cambridge, UK). Secondary antibodies consisted of donkey anti-goat (R&D Systems®) or sheep anti-mouse and sheep anti-rabbit (GE Healthcare®) IgG. Detection was performed as described above.\nTo determine whether these peptides could inhibit the formation of the hGal-7 homodimer, recombinant hGal-7 (0.5 μM) was incubated with increasing concentrations of hGal-7(13-25), hGal-7(85-102), hGal-7(95-108) or hGal 7(129-135) and the formation of homodimers was measured. To measure the ability of the peptides to disrupt the formation of hGal-7 dimers, a mild denaturing (low SDS) native gel electrophoresis, a commonly used approach to visualize monomer-dimer equilibrium, was used (FIG. 1A and FIG. 6).", "key": {"[1]": {"conditions": "20 mM potassium phosphate pH 7.1, FIG. 2A"}}, "data": [{"substance": "H-Leu-Asp-Ser-Val-Arg-Ile-Phe-NH2 (H-LDSVRIF-NH2; listed as Homo sapiens) [hGal-7(129-135), peptide corresponding to residues 129-135 of hGal-7]", "values": [{"measurement": "disruption of hGal-7 homodimers in the presence of lactose", "setting": "0.1 mM lactose solution, FIG. 2D", "result": "not inhibited by the presence of lactose"}, {"measurement": "concentration at which consistent decrease of hGal-7 homodimers starts", "setting": "[1]", "result": 10, "unit": "µM"}, {"measurement": "saturation dose for decrease of hGal-7 homodimers", "setting": "[1]", "result": 100, "unit": "µM"}]}]}
